Laboratory results: patent publication US20260150817A1 (LEVERAGEN, published 2026)
Where two headings read alike, the source gives them in different places.

How the values were obtained:
[1] = biological target: T1, SARS-Cov2 Spike Active Trimer SAT (R&D Systems; Catalog No. 10549-CV) (SARS-CoV-2, UniProt P0DTC2 16-1211); experiment: SPR (Carterra)
T1 construct: also called SARS-COV2 Spike Active Trimer protein; recombinant SAT protein

[2] = biological target: T1, SARS-Cov2 Spike Active Trimer SAT (R&D …)
[3] = biological target: T1, SARS-Cov2 Spike Active Trimer SAT (R&D …); remark: listed apart in the source
[4] = biological target: T1, SARS-Cov2 Spike Active Trimer SAT (R&D …); experiment: ELISA, serially diluted purified Nb-Fc against SAT antigen

Binder	Kd [1] [pM]	Kd [2] [pM]	Kd [3] [pM]	koff [3] [s⁻¹]	kon [3] [M⁻¹ s⁻¹]	EC50 [4] [pM]
M320_5 Nb-Fc (Fc fusion, also called LVGN-S3205) EVQLQQSGPELVKPGASVKMSCKASGYTFTDYYIKWEKQSHGKSLEWIGDINPKNGETFYNQQFKGKATLTVDKSSSTAYMQLNSLTSEDSAVYYCARKEYGDYGYAVDYWGQGTSVTVSS	3170	1210	1060	0.000143	135000	24
M2S320_75 Nb-Fc (Fc fusion, also called LVGN-S32075) EVQLQQSGPELVKPGASVKMSCKASGYTFTDYYMKWLKQNHGKSLEWIGDINPNNGDTFYNQKFKGKATLTVDTSSSTAYMQLNSLTSEDSAVYYCARKEYGDYGYATDYWGQGTSVTVSS						68
M2S320_377 Nb-Fc (Fc fusion, also called LVGN-S320377) EVQLQQSGPELVKPGASVKMSCKASGYTFTDYYVKWKKQSHGKSLEWIGDINPNNGDTFYNQKFKDKATLTVDKSSSTAYMQLNSLTSEDSAVYYCARKEYGNFGYAVDYWGQGTSVTVSS						97
M2S521_623 Nb-Fc (Fc fusion, also called LVGN-S521623) EVQLQQSGPELVKPGASVKISCKASGYTFTDYYMKWEKQSHGKSLEWIGDINPNNGGTRYNQKFRGKATLTVDKSSSTAYMELRSLTSEDSAVYYCARLEDDYYGYAVDYWGQGTSVTVSS						54
M2S521_193 Nb-Fc (Fc fusion, also called LVGN-S521193) EVQLQQSGPELVKPGASVKISCKASGYTFTDYYMKWVKQSHGKSLEWIGDINPNNGGARYNQKFKGRATLTVDKSSSTAYMELRSLTSEDSAVYYCSRLEDGYYGYAVDYWGQGTSVTVSS						85
M2S521_378 Nb-Fc (Fc fusion, also called LVGN-S521378) EVQLQQSGPELVKPGASVKISCKASGYTFTDYYMKWVKQSHGKSLEWIGDINPKNGGTNYNQKFKDKATLTVDKSSSTAYMELRSLTSEDSAVYYCARLEDGYYGYAIDYWSQGTSVTVSS						81
MS521_35 Nb-Fc (Fc fusion, also called LVGN-S52135) EVQLQQSGPELVKPGASVKISCKASGYTFTDYYMKWVKQRHGQSLEWIGNINPTNGDTNYSQNFKGKATLTVDKSSTTAYMELRSLTSEDSAVYYCARLEDGYYGYAVDYWGQGTSVTVSS	5300	9090		0.000685	75300	24
M2S521_72 Nb-Fc (Fc fusion, also called LVGN-S52172) EVQLQQSGPELVKPGASVKISCKASGYTFTDYYMKWAKQSHGKSLEWIGHINPVNGDTSYNQKFKGKATLTVDKSSSTVYMELRSLTSEDSAVYYCARLEDGYYGYTMDYWGQGTSVTVSS						63
